Each block holds one molecule with its values, some of them ahead of it.
Tests used:
Assay type in all cases: biochemical
[1] = Reaction for releasing fructosyl valine from FVHL by angiotensin-converting enzyme; details: 20 U/ml enzyme solution, 2 mM FVHL, 37° C., 1 hour; 730 nm
Description: Then, 200 μl of a coloring solution (50 mM Tris-HCl (pH 7.5), 0.1% Triton X-100, 5 U/ml POD, 50 U/ml FOD2, and 0.02 mM DA-64) was added to each resultant, and the mixture was allowed to react at 37° C. for 5 minutes. Thereafter, 500 μl of 0.5% SDS was added to terminate the coloring reaction, and the absorbance at 730 nm was determined. The same reaction was performed except that distilled water was used instead of the 2 mM FVHL solution. Meanwhile, 200 μl of the coloring solution was added to 40 μl of an FV solution (0, 5, 10, 20, or 50 μM), and determination was performed in the same way as above.

[2] = Substrate specificity of ketoamine oxidases; details: for absorbance difference (A1 − Ab): pH 7.5, 37° C., 5 minutes, 555 nm; for relative activity: FVH = 100 (FOD2: FZK = 100)
Description: The phrase “reactivity of a ketoamine oxidase to ε-1-deoxyfructosyl-(α-benzyloxycarbonyl-L-lysine) (hereinafter also referred to as FZK) is 5% or less compared with that to 1-deoxyfructosyl-L-valyl-L-histidine (hereinafter also referred to as FVH)” refers to the fact that the rate of the reactivity is 5% or less, which is determined by the following steps: adding 20 μl of a ketoamine oxidase solution to 200 μl of a reaction solution (50 mM Tris-HCl buffer (pH 7.5), 0.1% Triton X-100, 0.03% 4-aminoantipyrine, 0.02% TOOS, 5 U/ml peroxidase, and 2 mM FZK or FVH); allowing the mixture to react at 37° C. for 5 minutes; adding 0.5 ml of 0.5% SDS; determining an absorbance at 555 nm (A1); performing the same operations using a reaction solution containing no FZK and FVH to determine an absorbance (Ab); and determining the reactivity from the difference (A1−Ab).
(§1) Determination was performed by the same method described in <Reference Example: Substrate Specificity of Ketoamine Oxidase derived from Curvularia clavata YH923 (FERM BP-10009), Ketoamine Oxidase derived from Neocosmospora vasinfecta 474, and Ketoamine Oxidase derived from Fusarium oxysporum (manufactured by Asahi Kasei Pharma)>.

[3] = pH dependency of specific activity (FZK/FVH)
Description: (§2) 20 μl of an enzyme solution was added to 200 μl of a reaction solution (50 mM buffer, 0.1% Triton X-100, 0.03% 4-aminoantipyrine, 0.02% TOOS, 5 U/ml peroxidase, 2 mM substrate). The whole was incubated at 37° C. for 5 minutes and then 500 μl of 0.5% SDS was added thereto followed by determining absorbance at 555 nm. Tris-HCl (pH 7.5, 8.0, 8.5), PIPES (pH 6.0, 6.5, 7.0), and Bistris-HCl (pH 5.0, 5.5, 6.0, 6.5) were used as the buffers for determination. Also, absorbance was determined using a reaction solution containing no substrates. Differences in the absorbance when FVH and FZK each were used as a substrate and concentrations of the enzyme in the enzyme solution to be used are described in Table 18.

[4] = pH dependency of activity of ketoamine oxidase
Description: as §2

[5] = Specificity of mutant ketoamine oxidase to various substrates; details: Table 17; FVH = 100
Description: 100 μl of a preliminary sterilized expression medium (a medium containing 3% of sorbitol, 1.5% of polypeptone, 1.5% of yeast extract, and 50 μg/ml of ampicillin and adjusted to pH 7.0) was added to a 96-well microplate. Grown transformants were inoculated thereto and cultured overnight at 30° C. After the termination of the culture, each 5 μl of the culture solution was dispensed into two wells of a 96-well plate and 50 μl of a determination reagent (a 50 mM Tris-HCl buffer (pH 7.5) containing 1 mM FVH or FZK, 0.02% TOOS, 0.02% 4-aminoantipyrine and 10 U/ml peroxidase) was added to each well, and a reaction was carried out at 30° C. for 10-60 minutes. 150 μl of 0.5% SDS was added thereto to terminate the reaction and absorbance was determined at 550 nm using a Microreader (model 450, manufactured by Bio-Rad). From the constructed mutant library, a recombinant which produces ketoamine oxidase that act on FVH but has a decreased activity on FZK was selected. As a result of the screening, 923-F1 and 923-F2 were obtained as favorable mutant strains. Ketoamine oxidase genes harbored by those mutant strains were sequenced and resulted that mutations were introduced in the bases indicated by Table 15.
Note that, concentration of each substrate was set to be 1 mM and other reaction conditions were set according to the activity determination method described in <Screening of Mutant Ketoamine Oxidase having Decreased Action on FZK>.
Ketoamine oxidase derived from Neocosmospora vasinfecta 474 (FOD474) has high homology to ketoamine oxidases containing FOD923 and its amino acid sequence at an N-terminal region containing 158 of FOD923 is highly conserved as shown in FIG. 1. Using pPOSFOD474, FOD474 mutant strain 474-F1 in which 158 of FOD474 is substituted by a different amino acid (threonine) was acquired. […] 58 is a site that strongly affect on the specificity to FVH even in a case of a ketoamine oxidase derived from other microorganism species.

[6] = Substrate specificity of ketoamine oxidases; details: for absorbance difference (A1 − Ab): pH 7.5, 37° C., 5 minutes, 555 nm; for relative activity: FVH = 100 (FOD2: FZK = 100); remark: listed apart in the source
Description: as §1

absorbance difference showing FV released [1]: −0.006
B1: ACEP: angiotensin-converting enzyme derived from porcine kidney (manufactured by Sigma Corporation) (protein, UniProt F1RRW5 34-1309, looked up)
Angiotensin-converting enzyme: LDSALQPGNFTADEAGAEDFAQSFNSSSEQVLFQSTAASWAHDTNITEENARRQEEAALISQEFSEVWGQKAKALYDPIWQNFTSRTLRRIIGVVRTLGSANLSPAKRQQYNSLLSNMTRIYSTAKVCFPNKTATCWSLDPELTNILATSRSYTLLLYAWEGWHNAAGIPLKPLYQDFTALSNEAYKQDGFSDTGAYWRSLYDSPTFTEDLERLYHQLEPLYLNLHAYVRRALHRQYGDRFINLRGPIPAHLLGNMWAQSWNNIYDMVVPFPGKPSLDVTSAMVQKGWNVTHMFRVAEEFFTSLGLLPMPPEFWAESMLEKPSDGREVVCHASAWDFYNRKDFRIKQCTQVTMDQLSTVHHEMGHVQYYLQYKDQHVSLRRGANPGFHEAIGDVLALSVSTPAHLHKIGLLDHVTSDWESDINYLLKMALEKIAFLPFGYLVDQWRWGVFSGRTPPLYNYDWWYLRTKYQGVCPPVVRNETHFDAGAKYHVPNVTPYIRYFVSFILQFQFHQALCKEAGHQGPLHQCDIYQSTRAGAKLRAVLQAGSSRPWQEVLKDMVGSGALDAQPLLDYFQPVTQWLEEQNQRSGDILGWPEYQWRPPMPDNYPEGIDLVSDEAEASKFVEEYDRRSQVVLNEYAEANWDYNTNITAEGSKRVLEKSTQMANHTVKYGIWARKFDVANIQNFTLKRMIKKIQDLERAALPFKELEEYNQILLDMETAYSVASVCHANSTCLQLEPDLTNLMATSRSYEELLWAWKGWRDKVGRAILPYFPKYVELTNKAARLNGYEDGGDAWRAAYEMPFLEQELEQLFQELQPLYLNLHAYVRRALHHHYGPEHINLEGPIPAHLLGNMWAQTWSNIYDLVVPFPSASKMDASEAMINQGWTPQRMFKEADNFFTSLGLLPVPPEFWNKSMLEKPTDGREVVCHASAWDFFNGKDFRIKQCTTVNMEDLVVAHHEMGHIQYFMQYKDLPVTFREGANPGFHEAIGDVLALSVSTPKHLRSINLLKSEDDGYEEDINFLMKMALDKVAFVPFSYLVDQWRWRVFDRSITKENYNQEWWSLRLKYQGLCPPVARSQGDFDPGAKFHIPSSVPYIRYFVSFIIQFQFHEALCQAAGHKGPLHKCDIYQSKEAGRRLADAMKLGLSKPWPEAMQLITGQPNVSASAMMTYFKPLLDWLVTENGRHGEKLGWPQYNWTPNSARLEGSFAGTGRVNFLGLNLEEQQARVGQWVLLFLGVTLLVATMGLTQRLFSIRHQILRRTHRGPQFGSEVELRHS

difference in absorbance, substrate FVH ([4]; Bistris pH 5.0): 0.023
difference in absorbance, substrate FZK ([4]; Bistris pH 5.0): 0.012
difference in absorbance, substrate FVH ([4]; Bistris pH 5.5): 0.084
difference in absorbance, substrate FZK ([4]; Bistris pH 5.5): 0.022
difference in absorbance, substrate FVH ([4]; Bistris pH 6.0): 0.187
difference in absorbance, substrate FZK ([4]; Bistris pH 6.0): 0.042
difference in absorbance, substrate FVH ([4]; Bistris pH 6.5): 0.273
difference in absorbance, substrate FZK ([4]; Bistris pH 6.5): 0.063
difference in absorbance, substrate FVH ([4]; PIPES pH 6.0): 0.265
difference in absorbance, substrate FZK ([4]; PIPES pH 6.0): 0.066
difference in absorbance, substrate FVH ([4]; PIPES pH 6.5): 0.303
difference in absorbance, substrate FZK ([4]; PIPES pH 6.5): 0.093
difference in absorbance, substrate FVH ([4]; PIPES pH 7.0): 0.243
difference in absorbance, substrate FZK ([4]; PIPES pH 7.0): 0.132
difference in absorbance, substrate FVH ([4]; Tris pH 7.5): 0.163
difference in absorbance, substrate FZK ([4]; Tris pH 7.5): 0.162
difference in absorbance, substrate FVH ([4]; Tris pH 8.0): 0.104
difference in absorbance, substrate FZK ([4]; Tris pH 8.0): 0.200
difference in absorbance, substrate FVH ([4]; Tris pH 8.5): 0.063
difference in absorbance, substrate FZK ([4]; Tris pH 8.5): 0.210
specificity, substrate FV [5]: 540
specificity, substrate FVH [5]: 100
specificity, substrate FZK [5]: 40
B2: FOD474: ketoamine oxidase of Neocosmospora vasinfecta 474 that reacts with FVH, expressed in Escherichia coli (protein, listed as Neocosmospora vasinfecta)
chain: MTTPRKETTVLIIGGGGTIGSSTALHLLRAGYTPSNITVLDTYPIPSAQSAGNDLNKIMGIRLRNKVDLQLSLEARDMWRNDALFRPFFHNTGRLDCESSAEGVEGLRREYQKLVEAGVGLEETHEWLDSEEAILEKAPLLQREEIEGWKAIWSEEGGWLAAAKAINAIGEELQRQGVRFGFGGAGSFKRPLFADDGTTCIGVETVDGTQYHADKVVLAAGAWSPALVDLEEQCCSKAWVYAHMQLTPEEAAVYKGCPVVYHGDVGFFFEPNENGVIKVCDEFPGFTRFKQHQPYGAPAPKPVSVPRSHAKHPTDTYPDASEESIKRAVSTFLPRFKDKPLFNRALCWCTDTADSALLICEHPRWKNFILATGDSGHSFKLLPIIGKHVVELVEGRLADDLAEAWRWRPGQGDARKSIRAAPAKDLADMPGWKHDQDSESR
modifications: CDS (1)..(1323)
notes: ketoamine oxidase of Neocosmospora vasinfecta 474 that reacts with FVH, expressed in Escherichia coli
absorbance difference (A1 − Ab) ([2]; 2 mM FVH): 0.221
absorbance difference (A1 − Ab) ([2]; 2 mM FZK): 0.032
relative activity ([2]; substrate FVH): 100%
relative activity ([2]; substrate FZK): 15%
specific activity (FZK/FVH) ([3]; Bistris pH 5.0): 10.4%
specific activity (FZK/FVH) ([3]; Bistris pH 5.5): 5.2%
specific activity (FZK/FVH) ([3]; Bistris pH 6.0): 4.9%
specific activity (FZK/FVH) ([3]; Bistris pH 6.5): 4.6%
specific activity (FZK/FVH) ([3]; PIPES pH 6.0): 5.0%
specific activity (FZK/FVH) ([3]; PIPES pH 6.5): 6.1%
specific activity (FZK/FVH) ([3]; PIPES pH 7.0): 10.9%
specific activity (FZK/FVH) ([3]; Tris pH 7.5): 19.9%
specific activity (FZK/FVH) ([3]; Tris pH 8.0): 38.5%
specific activity (FZK/FVH) ([3]; Tris pH 8.5): 66.7%
absorbance difference (A1 − Ab) ([6]; 2 mM FV): 0.289
absorbance difference (A1 − Ab) ([6]; 2 mM FVHL): 0.002
absorbance difference (A1 − Ab) ([6]; 2 mM FVHLT): 0.002
absorbance difference (A1 − Ab) ([6]; 2 mM FVL): 0.059
absorbance difference (A1 − Ab) ([6]; 2 mM α-glycated pentapeptide): 0.003
absorbance difference (A1 − Ab) ([6]; 2 mM β-glycated pentapeptide): 0.002
relative activity ([6]; substrate FV): 445%
relative activity ([6]; substrate FVHL): 0%
relative activity ([6]; substrate FVHLT): 0%
relative activity ([6]; substrate FVL): 0.91%
relative activity ([6]; substrate α-glycated pentapeptide): 0%
relative activity ([6]; substrate β-glycated pentapeptide): 0%

From US7943337B2, “Method for screening a protease” (Asahi Kasei Pharma Corporation, priority 2003, dated 2011)
